Patent US20230348540A1 (UNIVERSITY OF COPENHAGEN, published 2023)
Ends that are not written are not given here. * marks the point of attachment. Biotin = O=C1N[C@H]2[C@H](CS[C@H]2CCCCC(=O)*)N1; Ahx = NCCCCCC(=O)O

B1: GCN4p1-GS4-GS4 (non-binding control peptide) (peptide)
peptide: not shown
modifications: N-terminal biotin joined through 6-aminohexanoic acid (Ahx)
notes: also called biotin-Ahx-GCN4p1-GS4-GS4; biotin-Ahx-GCN4p1-GS-GS

Target: T1, PICK1 protein in mouse spinal cord lysate (mouse, UniProt Q62083 1-416)
T1 construct: Endogenous protein, detected by Western blot after pull-down
Experiment: pull-down with biotinylated peptide on streptavidin beads from mouse spinal cord lysate, western blot [D]

Row | Binder | binding result
1 | B1 | no binding

Target: T2, Full length rat PICK1 (Protein Interacting with C Kinase-1) (rat, UniProt Q9EP80 1-416)
T2 construct: mature; Residues left by the cleaved tag are not described; also called purified PICK1
Experiment: FP competition (FIG. 17C)

Row | Binder | binding result
2 | {Biotin-Ahx}-GEIAKSLKEIAKSLKEIAWSLKEIAKSLKGGGGSNSVRV [CC-Hex2-GS4-NSVRV] | binds

Target: T3, TRX-6xHis-hPSD95 1-724 (full length human PSD-95) (human, UniProt P78352 1-724, Alexa488 label in the confocal experiment of Example 5 only)
T3 construct: range 1-724; Purified by HisTrap and SEC; also called FL-PSD-95; not shown: TRX-6xHis tag encoded by the pET-MG-3C plasmid
Experiment: SDS-PAGE sedimentation assay

Row | Binder | binding result
3 | SNTANRRTTPV (also called Stg; RRTTPV monomer) | binds

Target: T4, PSD-95 protein in mouse spinal cord lysate (mouse, UniProt Q62108 1-724, limits assumed)
T4 construct: Endogenous protein, detected by Western blot after pull-down
Experiment: pull-down with biotinylated peptide on streptavidin beads from mouse spinal cord lysate, western blot [D]

Row | Binder | binding result
4 | B1 | no binding

Target: T2, Full length rat PICK1 (Protein …)
Experiment: FP competition on purified PICK1, tracer 5FAM-HWLKV 20 nM; fold change against HWLKV [panel 2 from the left]

Row | Binder | binding result
5 | TSIRV (also called DAT-C5 variant) | binds
6 | TEVIV (also called DAT-C5 variant) | binds
7 | NYVRV (also called DAT-C5 variant) | binds
8 | TSIIV (also called DAT-C5 variant) | binds
9 | NYVIV (also called DAT-C5 variant) | binds
10 | TSVIV (also called DAT-C5 variant) | binds
11 | TEVRV (also called DAT-C5 variant) | binds
12 | TEIRV (also called DAT-C5 variant) | binds

Target: T2, Full length rat PICK1 (Protein …)
Experiment: FP competition on purified PICK1, tracer 5FAM-HWLKV 20 nM; fold change against HWLKV [panel 1 from the left]

Row | Binder | binding result
13 | NYIRV (also called DAT-C5 variant) | binds
14 | NEIRV (also called DAT-C5 variant) | binds
15 | NSVIV (also called DAT-C5 variant) | binds
16 | NSVRV (also called DAT-C5 variant) | binds
17 | NSIRV (also called DAT-C5 variant) | binds
18 | NYIIV (also called DAT-C5 variant) | binds
19 | NSIIV (also called DAT-C5 variant) | binds
20 | NEIIV (also called DAT-C5 variant) | binds
21 | NEVRV (also called DAT-C5 variant) | binds

Target: T5, nNOS protein in mouse spinal cord lysate (mouse, UniProt Q9Z0J4 1-1429, limits assumed)
T5 construct: Endogenous protein, detected by Western blot after pull-down
Experiment: pull-down with biotinylated peptide on streptavidin beads from mouse spinal cord lysate, western blot [D]

Row | Binder | binding result
22 | B1 | no binding

Target: T6, PSD-95 PDZ1-2 (UniProt P78352 61-249, limits assumed)
T6 construct: domain: PDZ1-2
Experiment: FP competition, tracer 5-FAM-(IETAV)2 5 nM, PSD-95 PDZ12 0.15 µM
Excerpt: FIG. 18: Fluorescence polarization competition binding curves for the unlabelled peptides. […] Data expressed as mean±SEM (n=3).
The data was plotted using GraphPad Prism 8.3, and fitted to the ‘One site—Fit’ Kᵢ competition curve, to extract apparent KI values.

Row | Binder | Ki [nM]
23 | {Biotin-Ahx}-GEIAKSLKEIAKSLKEIAWSLKEIAKSLKGGGGSRRTTPV [CC-Hex2-GS4-RRTTPV] | 242
24 | {Biotin-Ahx}-GEIAKSLKEIAKSLKEIAWSLKEIAKSLKGGGGSIETDV [CC-Hex2-GS4-IETDV] | 56

Target: T2, Full length rat PICK1 (Protein …)
Experiment: FP competition on purified PICK1, tracer 5FAM-HWLKV 20 nM; fold change against HWLKV [panel 3 from the left]

Row | Binder | binding result
25 | FSVRV (also called DAT-C5 variant) | binds
26 | TYIIV (also called DAT-C5 variant) | binds
27 | FEIIV (also called DAT-C5 variant) | binds
28 | TYVIV (also called DAT-C5 variant) | binds
29 | TYVRV (also called DAT-C5 variant) | binds
30 | TYIRV (also called DAT-C5 variant) | binds
31 | FSIIV (also called DAT-C5 variant) | binds
32 | FSIRV (also called DAT-C5 variant) | binds
33 | FEIRV (also called DAT-C5 variant) | binds

Target: T2, Full length rat PICK1 (Protein …)
Experiment: FP competition, tracer 5-FAM-(HWLKV)2 10 nM, PICK1 (Example 8)
Description: The plates were incubated 30-40 min on ice and the fluorescence polarization was measured on an Omega POLARstar plate (BMG LABTECH) reader using excitation filter at 485 nm and long pass emission filter at 520 nm. The data was plotted using GraphPad Prism 8.3, and fitted to the ‘One site—Fit’ Kᵢ competition curve, to extract apparent KI values.

Row | Binder | Ki [nM]
34 | {Biotin-Ahx}-GEIAKSLKEIAKSLKEIAWSLKEIAKSLKGGGGSHWLKV (also called CC-hex-GS4-HWLKV) [CC-Hex2-GS4-HWLKV] | 22.9
35 | {Biotin-Ahx}-GELAAIKQELAAIKKELAAIKWELAAIKQGGGGSHWLKV (also called CC-tet2-GS4-HWLKV) [CC-Tet-GS4-HWLKV] | 2.47

Target: T2, Full length rat PICK1 (Protein …)
Experiment: FP competition on purified PICK1, tracer 5FAM-HWLKV 20 nM; fold change against HWLKV [panel 4 from the left]

Row | Binder | binding result
36 | FYIRV (also called DAT-C5 variant) | binds
37 | FEVIV (also called DAT-C5 variant) | binds
38 | FYIIV (also called DAT-C5 variant) | binds
39 | FYVRV (also called DAT-C5 variant) | binds
40 | FYVIV (also called DAT-C5 variant) | binds
41 | FEVRV (also called DAT-C5 variant) | binds
42 | SIIV (also called DAT-C5 variant) | binds
43 | SVIV (also called DAT-C5 variant) | binds
44 | SVRV (also called DAT-C5 variant) | binds
45 | EIIV (also called DAT-C5 variant) | binds

Target: T2, Full length rat PICK1 (Protein …)
Experiment: FP competition on purified PICK1, tracer 5FAM-HWLKV 20 nM; fold change against HWLKV [panel 5 from the left]

Row | Binder | binding result
46 | EVIV (also called DAT-C5 variant) | binds
47 | YVIV (also called DAT-C5 variant) | binds
48 | YIIV (also called DAT-C5 variant) | binds
49 | EIRV (also called DAT-C5 variant) | binds
50 | EVRV (also called DAT-C5 variant) | binds
51 | YVRV (also called DAT-C5 variant) | binds
52 | YIRV (also called DAT-C5 variant) | binds
